Measurements as given in EP4775675A1 (Shanghai Hongcheng Biopharmaceutical Co., Ltd., dated 2026).
Where two headings read alike, the source gives them in different places.

How the values were obtained:
[1] = target: T1, human BDCA-2 on cells (Jurkat-hBDCA-2 cells; human pDCs; human PBMCs) (human, UniProt Q8WTT0 1-213); assay: cell-based or functional assay
T1 sequence (looked up): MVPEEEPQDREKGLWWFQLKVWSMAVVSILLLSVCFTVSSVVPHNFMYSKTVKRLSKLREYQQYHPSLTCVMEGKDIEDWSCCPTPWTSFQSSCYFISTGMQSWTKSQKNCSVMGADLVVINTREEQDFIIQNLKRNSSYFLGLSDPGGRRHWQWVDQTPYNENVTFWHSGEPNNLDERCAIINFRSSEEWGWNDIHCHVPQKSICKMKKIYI

[2] = target: T1, human BDCA-2 on cells (Jurkat-hBDCA-2 …); assay: flow cytometry on Jurkat-hBDCA-2 cells
[3] = target: T1, human BDCA-2 on cells (Jurkat-hBDCA-2 …); assay: cell-based or functional assay; remark: listed apart in the source
[4] = target: T1, human BDCA-2 on cells (Jurkat-hBDCA-2 …); assay: flow cytometry on Jurkat-hBDCA-2 cells; remark: listed apart in the source
[5] = target: T2, Human BDCA-2 protein (soluble, Octet analyte) (human, UniProt Q8WTT0 45-213, limits assumed); assay: BLI (Octet Red96e), antibody on anti-human IgG sensor, human BDCA-2 protein in solution
T2 construct: Soluble protein used as analyte in BLI
T2 sequence (looked up): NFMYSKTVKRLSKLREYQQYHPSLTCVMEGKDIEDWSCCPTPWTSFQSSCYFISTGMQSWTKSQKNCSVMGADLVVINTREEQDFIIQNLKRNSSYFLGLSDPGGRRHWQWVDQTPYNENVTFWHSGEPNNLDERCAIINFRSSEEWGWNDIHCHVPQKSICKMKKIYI

[6] = target: T1, human BDCA-2 on cells (Jurkat-hBDCA-2 …); assay: cell-based or functional assay; remark: listed apart in the source
[7] = target: T2, Human BDCA-2 protein (soluble, Octet …); assay: BLI (Octet Red96e), antibody on anti-human IgG sensor, human BDCA-2 protein in solution; remark: listed apart in the source
[8] = target: T1, human BDCA-2 on cells (Jurkat-hBDCA-2 …); assay: flow cytometry on Jurkat-hBDCA-2 cells; remark: listed apart in the source
[9] = target: T1, human BDCA-2 on cells (Jurkat-hBDCA-2 …); assay: cell-based or functional assay; remark: listed apart in the source
[10] = target: T1, human BDCA-2 on cells (Jurkat-hBDCA-2 …); assay: cell-based or functional assay; remark: listed apart in the source
[11] = target: T1, human BDCA-2 on cells (Jurkat-hBDCA-2 …); assay: cell-based or functional assay; remark: listed apart in the source
[12] = target: T1, human BDCA-2 on cells (Jurkat-hBDCA-2 …); assay: flow cytometry on sorted human pDCs
[13] = target: T1, human BDCA-2 on cells (Jurkat-hBDCA-2 …); assay: cell-based or functional assay; remark: listed apart in the source

B1: BIIB059 (antibody)
chain 1: not shown
chain 2: DIQLTQSPSSLSASVGDRVTITCKASQSVDYDGDSYMNWYQQKPGKAPKLLIYAASTLESGVPSRFSGSGSGTDFTLTISSLQPEDFATYYCQQANEDPRTFGQGTKVEIKRTVAAPSVFIFPPSDEQLKSGTASVVCLLNNFYPREAKVQWKVDNALQSGNSQESVTEQDSKDSTYSLSSTLTLSKADYEKHKVYACEVTHQGLSSPVTKSFNRGEC
- EC50, inhibition of CpGA-induced type I interferon (IFNα) production in human PBMC cells [1]: 0.0031 µg/mL
- EC50 [2]: 0.224 µg/mL
- EC50, inhibition of CpGA-induced type I interferon (IFNα) production in human PBMC cells [3]: 0.0025 µg/mL
- EC50 [4]: 0.175 µg/mL
- Kd [5]: 3.9 nM
- EC50, inhibition of CpGA-induced type I interferon (IFNα) production in human PBMC cells [6]: 0.0021 µg/mL
- Kd [7]: 1.9 nM
- EC50 [8]: 0.0704 µg/mL
- EC50, inhibition of immune complex-induced type I interferon (IFNα) production by human pDC cells [9]: 2.1 ng/mL
- EC50, inhibition of immune complex-induced type I interferon (IFNα) in human pDC cells [10]: 33.4 ng/mL
- EC50, inhibition of immune complex-induced type I interferon (IFNα) in human pDC cells [11]: 6.1 ng/mL
- EC50 [12]: 0.281 µg/mL
- EC50, inhibition of CpGA-induced type I interferon (IFNα) production in human PBMC cells [13]: 0.0132 µg/mL
